Test results as given in paper PMC8294587, “Intrinsic differences in the mechanisms of Tie2 binding to angiopoietins exploited by directed evolution to create an Ang2-selective ligand trap” (The Journal of Biological Chemistry, 2021).

B1: wild-type Tie2 ectodomain-Fc [human] / Angiopoietin-1 [not stated] (parent complex)
chain 1: AMDLILINSLPLVSDAETSLTCIASGWRPHEPITIGRDFEALMNQHQDPLEVTQDVTREWAKKVVWKREKASKINGAYFCEGRVRGEAIRIRTMKMRQQASFLPATLTMTVDKGDNVNISFKKVLIKEEDAVIYKNGSFIHSVPRHEVPDILEVHLPHAQPQDAGVYSARYIGGNLFTSAFTRLIVRRCEAQKWGPECNHLCTACMNNGVCHEDTGECICPPGFMGRTCEKACELHTFGRTCKERCSGQEGCKSYVFCLPDPYGCSCATGWKGLQCNEACHPGFYGPDCKLRCSCNNGEMCDRFQGCLCSPGWQGLQCEREGIQRMTPKIVDLPDHIEVNSGKFNPICKASGWPLPTNEEMTLVKPDGTVLHPKDFNHTDHFSVAIFTIHRILPPDSGVWVCSVNTVAGMVEKPFNISVK
chain 2: HIGCSNQRRSPENSGRRYNRIQHGQCAYTFILPEHDGNCRESTTDQYNTNALQRDAPHVEPDFSSQKLQHLEHVMENYTQWLQKLENYIVENMKSEMAQIQQNAVQNHTATMLEIGTSLLSQTAEQTRKLTDVETQVLNQTSRLEIQLLENSLSTYKLEKQLLQQTNEILKIHEKNSLLEHKILEMEGKHKEELDTLKEEKENLQGLVTRQTYIIQELEKQLNRATTNNSVLQKQQLELMDTVHNLVNLCTKEGVLLKGGKREEEKPFRDCADVYQAGFNKSGIYTIYINNMPEPKKVFCNMDVNGGGWTVIQHREDGSLDFQRGWKEYKMGFGNPSGEYWLGNEFIFAITSQRQYMLRIELMDWEGNRAYSQYDRFHIGNEKQNYRLYLKGHTGTAGKQSSLILHGADFSTKDADNDNCMCKCALMLTGGWWFDACGPSNLNGMFYTAGQNHGKLNGIKWHYFKGPSYSLRSTTMMIRPLDF
B2: wild-type Tie2 ectodomain-Fc [human] / Angiopoietin-2 [not stated] (parent complex)
chain 1: B1 chain 1
chain 2: YNNFRKSMDSIGKKQYQVQHGSCSYTFLLPEMDNCRSSSSPYVSNAVQRDAPLEYDDSVQRLQVLENIMENNTQWLMKLENYIQDNMKKEMVEIQQNAVQNQTAVMIEIGTNLLNQTAEQTRKLTDVEAQVLNQTTRLELQLLEHSLSTNKLEKQILDQTSEINKLQDKNSFLEKKVLAMEDKHIIQLQSIKEEKDQLQVLVSKQNSIIEELEKKIVTATVNNSVLQKQQHDLMETVNNLLTMMSTSNSAKDPTVAKEEQISFRDCAEVFKSGHTTNGIYTLTFPNSTEEIKAYCDMEAGGGGWTIIQRREDGSVDFQRTWKEYKVGFGNPSGEYWLGNEFVSQLTNQQRYVLKIHLKDWEGNEAYSLYEHFYLSSEELNYRIHLKGLTGTAGKISSISQPGNDFSTKDGDNDKCICKCSQMLTGGWWFDACGPSNLNGMYYPQRQNTNKFNGIKWYYWKGSGYSLKATTMMIRPADF

Variants of: B1
Experiment: ELISA (named by the earlier reader; legend does not name the assay); mutant read at its highest concentration point, about 300 nM Tie2 ectodomain; parent value is the wild-type curve's highest concentration point, about 30-50 nM; parent: 1; read off a plot

response [AU]	Variant
~0.88	chain 1 AMDLILINSLPLVSDAETSLTCIASGWRPHEPITIGRDFEALMNQHQDPLEVTQDVTREWAKKVVWKREKASKINGAYFCEGRVRGEAIRIRTMKMRQQASFLPATLTMTVDKGDNVNISFKKVLIKEEDAVIYKNGSFIHSVPAAEVPDILEVHLPHAQPQDAGVYSARYIGGNLFTSAFTRLIVRRCEAQKWGPECNHLCTACMNNGVCHEDTGECICPPGFMGRTCEKACELHTFGRTCKERCSGQEGCKSYVFCLPDPYGCSCATGWKGLQCNEACHPGFYGPDCKLRCSCNNGEMCDRFQGCLCSPGWQGLQCEREGIQRMTPKIVDLPDHIEVNSGKFNPICKASGWPLPTNEEMTLVKPDGTVLHPKDFNHTDHFSVAIFTIHRILPPDSGVWVCSVNTVAGMVEKPFNISVK [chain 1 R145A, chain 1 H146A]

Variants of: B1
Experiment: ELISA (named by the earlier reader; legend does not name the assay); mutant read at its highest concentration point, about 300 nM Tie2 ectodomain; parent value is the wild-type curve's highest concentration point, about 50-100 nM; parent: …; read off a plot

response [AU]	Variant
~0.09	chain 1 AMDLILINSLPLVSDAETSLTCIASGWRPHEPITIGRDFEALMNQHQDPLEVTQDVTREWAKKVVWKREKASKINGAYFCEGRVRGEAIRIRTMKMRQQASFLPATLTMTVDKGDNVNISFKKVLIKEEDAVIYKNGSFIHSVPAAAVPDILEVHLPHAQPQDAGVYSARYIGGNLFTSAFTRLIVRRCEAQKWGPECNHLCTACMNNGVCHEDTGECICPPGFMGRTCEKACELHTFGRTCKERCSGQEGCKSYVFCLPDPYGCSCATGWKGLQCNEACHPGFYGPDCKLRCSCNNGEMCDRFQGCLCSPGWQGLQCEREGIQRMTPKIVDLPDHIEVNSGKFNPICKASGWPLPTNEEMTLVKPDGTVLHPKDFNHTDHFSVAIFTIHRILPPDSGVWVCSVNTVAGMVEKPFNISVK [chain 1 R145A, chain 1 H146A, chain 1 E147A]

Variants of: B2
Experiment: ELISA (named by the earlier reader; legend does not name the assay); mutant read at its highest concentration point, about 300 nM Tie2 ectodomain; parent value is the wild-type curve's highest concentration point, about 50 nM; parent: 0.9; read off a plot

response [AU]	Variant
~0.58	chain 1 AMDLILINSLPLVSDAETSLTCIASGWRPHEPITIGRDFEALMNQHQDPLEVTQDVTREWAKKVVWKREKASKINGAYFCEGRVRGEAIRIRTMKMRQQASFLPATLTMTVDKGDNVNISFKKVLIKEEDAVIYKNGSFIHSVPAAAVPDILEVHLPHAQPQDAGVYSARYIGGNLFTSAFTRLIVRRCEAQKWGPECNHLCTACMNNGVCHEDTGECICPPGFMGRTCEKACELHTFGRTCKERCSGQEGCKSYVFCLPDPYGCSCATGWKGLQCNEACHPGFYGPDCKLRCSCNNGEMCDRFQGCLCSPGWQGLQCEREGIQRMTPKIVDLPDHIEVNSGKFNPICKASGWPLPTNEEMTLVKPDGTVLHPKDFNHTDHFSVAIFTIHRILPPDSGVWVCSVNTVAGMVEKPFNISVK [chain 1 R145A, chain 1 H146A, chain 1 E147A]

Variants of: B2
Experiment: ELISA (named by the earlier reader; legend does not name the assay); mutant read at its highest concentration point, about 300 nM Tie2 ectodomain; parent value is the wild-type curve's highest concentration point, about 50 nM; parent: 1; read off a plot

response [AU]	Variant
~1	chain 1 AMDLILINSLPLVSDAETSLTCIASGWRPHEPITIGRDFEALMNQHQDPLEVTQDVTREWAKKVVWKREKASKINGAYFCEGRVRGEAIRIRTMKMRQQASFLPATLTMTVDKGDNVNISFKKVLIKEEDAVIYKNGSFIHSVPAAEVPDILEVHLPHAQPQDAGVYSARYIGGNLFTSAFTRLIVRRCEAQKWGPECNHLCTACMNNGVCHEDTGECICPPGFMGRTCEKACELHTFGRTCKERCSGQEGCKSYVFCLPDPYGCSCATGWKGLQCNEACHPGFYGPDCKLRCSCNNGEMCDRFQGCLCSPGWQGLQCEREGIQRMTPKIVDLPDHIEVNSGKFNPICKASGWPLPTNEEMTLVKPDGTVLHPKDFNHTDHFSVAIFTIHRILPPDSGVWVCSVNTVAGMVEKPFNISVK [chain 1 R145A, chain 1 H146A]
